Measured values as given in patent US10428308B2, “Mesoderm and definitive endoderm cell populations” (Icahn School of Medicine at Mount Sinai, priority 2005, dated 2019).

Legend:
CD4-HNF/GFP-T ES cells = experiment: Activin A / Wnt3a induction of ES derived primitive streak like cells in serum free culture, with pathway inhibitors; format: cell-based, mouse; details: for development of GFP^+ CD4^+ cells with either inducer (activin or Wnt): DKK1 100 ng/ml or SB-431542 6 uM
Procedure: FIGS. 34A, 34B and 34C depict ES cells differentiated in serum free conditions with Activin A Wnt3a and/or inhibitors of these pathways. ES cells were cultured in serum free media for two days then trypsinized to obtain a single cell population. These cells were then reaggregated with the indicated conditions. At day six, the EBs were plated on matrigel coated dishes in serum free media.
Liu et. al. (1999) Nat. Genet. 22: 361-4. […] Activin stimulation leads to high levels of CD4 expression that persist after loss of GFP-Bry expression at day 6. […] Wnt does however stimulate expression of the posterior primitive streak markers HoxBI and Tbx6, while activin only induces Tbx6. […] At day 6, EBs that were stimulated with either activin or Wnt3a were plated on matrigel in serum free media to allow further development.
Considering that Wnt stimulation induces nodal and activin treatment induces Wnt3 (FIG. 34B), it is unknown whether activin/nodal signaling or Wnt Signaling alone can induce primitive streak formation or whether both factors are required together. CD4-HNF/GFP-T ES cells were induced with either activin or Wnt in conjunction with specific inhibitors of these pathways. DKK1 was used to inhibit Wnt signaling while the small molecule inhibitor SB-431542 (SB) was used to block Nodal/TGFβ signaling. DKK1 functions by binding the Wnt co-receptors, LRP5 and LRP6, which are essential for activation of the βcatenin signaling pathway. […] Inman et. al. (2002) MoI. Pharmacol. 62: 65-74. […] Therefore, to induce mesoderm and endoderm germ layers and their derivative tissues, both activin/Nodal and Wnt signals are required initially.

ALK4, 5, and 7 = details: Inman et al. (2002); cited from earlier work
EBs (brachyury^+ cells) = experiment: BMP4 added to developing EBs in serum free cultures, GFP/Flk-1 expression; format: cell-based, mouse; details: BMP4 20 ng/ml
Procedure: FIG. 8B depicts expression of brachyury and Flk-1 on cell populations generated from GFP+/Flk-1^− cells cultured for 20 hours under the indicated conditions.
To assess the role of serum in the development of brachyury^+ cells, EBs were differentiated the absence of serum. EBs did develop under these conditions, although they were somewhat smaller than those found in normal conditions. […] Significant numbers of GFP^+/Flk-1^− and GFP^+/Flk-1^+ cells did develop when serum was added to the cultures. […] As a first step in identifying factors that might play a role in this process, BMP4 (20 ng/ml) was added to the developing EBs in the serum free cultures. […] To determine if BMP4 could induce GFP^+/Flk-1^+ from GFP^+/Flk-1^− cells that were induced in the presence of serum, GFP^+/Flk-1^− cells were isolated from EBs differentiated for three days in the presence of serum. These cells were reaggregated in medium alone, in medium with serum or in medium with BMP4. […] As expected, the same population generated a large GFP^+/Flk-1^+ population when serum was added to the cultures. Consistent with the findings in the primary differentiation cultures, BMP4 was unable to induce the development of significant numbers of GFP^+/Flk-1^+ cells from the cultured GFP^+/Flk-1^− cells.

[1] = system: GFP^+ hCD4^med cells from CD4-HNF/GFP-T ES cells; experiment: Reaggregation of sorted GFP^+ hCD4^med cells in serum free media with DKK1 and/or activin; format: cell-based, mouse
Procedure: FIGS. 35A and 35B depict, the effects of DKK1 and activin on EB differentiation. EBs differentiated and sorted as in FIG. 32 for GFP^+ hCD4^med were allowed to reaggregate in serum replacement containing media alone or with the addition of human DKK1 100 ng/ml, activin 100 ng/ml, or both factors together. […] FIG. 35B depicts endodermal gene expression by RT PCR. The sorted populations were treated as indicated above for 2 days, then plated on matrigel in serum free media without factors added. Gene expression was analyzed an additional 5 days after plating.
Nodal, a key molecule involved in mesoderm/endoderm induction in vivo, signals through the same receptors as activin. It is also known that Nodal as well as inhibitors for Wnt signaling are expressed preferentially in or around the anterior primitive streak. Considering that the endoderm forms from the anterior primitive streak, it is possible that nodal/activin signaling in combination with inhibition of Wnt signals induces endoderm formation. To test this hypothesis, CD4-HNF/GFP-T ES cells were differentiated for 3.25 days in serum and GFP^+ hCD4^med cells were sorted and reaggregated in serum free media with no factor, DKK1 (Wnt inhibitor), activin, or activin and DKK1. The effect of these culture conditions on hCD4-HNF3β and GFP-Bry levels were analyzed by flow cytometry (FIG. 35A). With serum free media alone, hCD4 expression was lost after 1 day reaggregation. […] To further test this idea, sorted cells reaggregated for two days in the culture conditions above were washed with serum free media without factors and plated onto martrigel in serum free media. After 5 days, the cultures were harvested and gene expression determined by RT PCR. […] These culture conditions have the potential to allow the large scale production of endodermal derived tissues such as the pancreas and liver.

## NC(=O)c1ccc(-c2nc(-c3ccc4c(c3)OCO4)c(-c3ccccn3)[nH]2)cc1 [SB-431542]
CD4-HNF/GFP-T ES cells
  development of GFP^+ CD4^+ cells with either inducer (activin or Wnt): completely blocked
ALK4, 5, and 7
  effect on BMP signaling: does not, however, block BMP signaling
  receptor specificity: specific inhibitor of the receptors ALK4, 5, and 7

B1: BMP4: growth factor purchased from R&D systems (protein, UniProt P12644 293-408, looked up)
Bone morphogenetic protein 4: SPKHHSQRARKKNKNCRRHSLYVDFSDVGWNDWIVAPPGYQAFYCHGDCPFPLADHLNSTNHAIVQTLVNSVNSSIPKACCVPTELSAISMLYLDEYDKVVLKNYQEMVVEGCGCR
EBs (brachyury^+ cells); serum free primary differentiation cultures
  development of GFP^+/Flk-1^+ population: did not support the development of the GFP^+/Flk-1^+ population
EBs (brachyury^+ cells); serum free, within 3 days of differentiation
  induction of brachyury^+ cells: induce a significant population of brachyury^+ cells

B2: DKK1: Wnt signaling inhibitor binding the Wnt co-receptors LRP5 and LRP6 (protein, UniProt O94907 32-266, looked up)
Dickkopf-related protein 1: TLNSVLNSNAIKNLPPPLGGAAGHPGSAVSAAPGILYPGGNKYQTIDNYQPYPCAEDEECGTDEYCASPTRGGDAGVQICLACRKRRKRCMRHAMCCPGNYCKNGICVSSDQNHFRGEIEETITESFGNDHSTLDGYSRRTTLSSKMYHTKGQEGSVCLRSSDCASGLCCARHFWSKICKPVLKEGQVCTKHRRKGSHGLEIFQRCYCGEGLSCRIQKDHHQASNSSRLHTCQRH
CD4-HNF/GFP-T ES cells
  development of GFP^+ CD4^+ cells with either inducer (activin or Wnt): completely blocked
[1]; 2 days treatment, then 5 days on matrigel without factors
  endoderm gene expression by RT PCR (pancreas, liver, intestine genes): None of these genes were detected
[1]; after 1 day reaggregation, DKK1 100 ng/ml, activin 100 ng/ml
  hCD4 (HNF3β) level by flow cytometry: allowed some cells to retain low levels of hCD4

B3: Wnt3a: recombinant Wnt3a (protein, UniProt P56704 19-352, looked up)
Protein Wnt-3a: SYPIWWSLAVGPQYSSLGSQPILCASIPGLVPKQLRFCRNYVEIMPSVAEGIKIGIQECQHQFRGRRWNCTTVHDSLAIFGPVLDKATRESAFVHAIASAGVAFAVTRSCAEGTAAICGCSSRHQGSPGKGWKWGGCSEDIEFGGMVSREFADARENRPDARSAMNRHNNEAGRQAIASHMHLKCKCHGLSGSCEVKTCWWSQPDFRAIGDFLKDKYDSASEMVVEKHRESRGWVETLRPRYTYFKVPTERDLVYYEASPNFCEPNPETGSFGTRDRTCNVSSHGIDGCDLLCCGRGHNARAERRREKCRCVFHWCCYVSCQECTRVYDVHTCK
CD4-HNF/GFP-T ES cells; day 6 EBs plated on matrigel a further 6 days, serum free
  endodermal gene expression (Alb, Aat, HNF4, Pdxl) by RT-PCR: did not express any of these markers
CD4-HNF/GFP-T ES cells; serum free, Activin A 25 ng/ml or Wnt3a 100 ng/ml
  induction of GFP^+ CD4^+ cells: initially induce GFP^+ CD4^+ cells
